This is an account of results in paper PMC8063937, “A Novel Cysteine Protease Inhibitor of Naegleria fowleri That Is Specifically Expressed during Encystation and at Mature Cysts” (Pathogens, 2021).

Data set [1] concerns the target recombinant cathepsin-B-like cysteine protease of N. fowleri (NfCBL) (Naegleria fowleri). The data set can be described thus: enzyme inhibition assay (residual activity on a fluorogenic substrate); 10 nM enzyme incubated with 0-100 nM NfCPI in 50 mM sodium acetate pH 6.0, 20 min, RT; substrate Z-LR-MCA in 50 mM sodium acetate pH 5.0 with 10 mM DTT; Ki calculated from IC50 and Km, non-linear regression.

A further data set addresses T1, papain (UniProt P00784 134-345).
T1 construct: Papain, cysteine protease bought from Sigma; source: bought: Sigma
T1 sequence (looked up): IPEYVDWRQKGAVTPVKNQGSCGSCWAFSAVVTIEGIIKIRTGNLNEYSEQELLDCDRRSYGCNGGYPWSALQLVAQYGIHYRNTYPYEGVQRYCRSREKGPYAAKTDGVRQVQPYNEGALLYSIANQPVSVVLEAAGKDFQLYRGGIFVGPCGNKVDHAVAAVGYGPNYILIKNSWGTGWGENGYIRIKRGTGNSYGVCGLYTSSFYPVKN
Described as above. The following applies: both partners purified.

Data set [2] concerns the target T2, recombinant cathepsin-B cysteine protease of N. fowleri (NfCB) (Naegleria fowleri).
T2 chain: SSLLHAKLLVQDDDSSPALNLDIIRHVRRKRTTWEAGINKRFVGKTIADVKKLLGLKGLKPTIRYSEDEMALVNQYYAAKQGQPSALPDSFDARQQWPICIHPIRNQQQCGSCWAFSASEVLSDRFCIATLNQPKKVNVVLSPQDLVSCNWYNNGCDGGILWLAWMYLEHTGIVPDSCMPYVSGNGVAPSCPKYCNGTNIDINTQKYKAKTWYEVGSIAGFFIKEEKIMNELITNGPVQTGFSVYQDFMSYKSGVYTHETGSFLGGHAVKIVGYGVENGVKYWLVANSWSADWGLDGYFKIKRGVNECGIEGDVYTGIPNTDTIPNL
The data set is described as above. The following applies: both partners purified.

Data set [3] concerns the molecule itself. The data set can be described thus: non-reducing PAGE; purified NfCPI, with 0-10% SDS, without β-mercaptoethanol, with or without heating at 100 °C for 5 min.

The term Ki denotes the dissociation constant of the complex between target and ligand, obtained from inhibition or displacement. In the case of “recombinant cysteine protease inhibitor of Naegleria fowleri (NfCPI), lacking the signal peptide (from UniProt A0A6A5BTM4 30-136) (natural protein)”, the Ki in data set [1] was 0.144 nM.

B1: recombinant cysteine protease inhibitor of Naegleria fowleri (NfCPI), lacking the signal peptide (natural protein)
chain: ALPIATNVIPGGRQPISNQTLIEELTTFIPKASSNGVCRVTRVLSAQQQVVAGTIYYLVVEVSTSCDATSSQTFCEKLKIFRPLVTRSVENPQLQLQKEQRVDCNTP
notes: ORF of 136 residues; the forward primer encodes LPIATNV as its first residues, the reverse primer ends at the stop codon; cDNA from strain Carter NF69 (ATCC 30215); also called recombinant NfCPI; source: E. coli M15 (pREP14), pQE-9, purified (Ni-NTA)
By stoichiometry N is commonly meant a count of units in the complex or per binding partner. Take B1: the Ki in the data set with papain was 0.259 nM; in data set [2], 0.193 nM. The “stoichiometry N” value in data set [3] amounted to 2.
